Biological target: Mg-ATP actin (15% Alexa 488-labeled), assembled into actin filaments (F-actin) (not stated (chicken or rabbit skeletal muscle)) (UniProt P68135)
Assay: TIRF microscopy; two-color TIRFM of 1.5 μM Mg-ATP actin (15% Alexa 488) assembling with Cy5-labeled Cdc8 at 1 μM and above; 10 mM imidazole pH 7.0, 50 mM KCl, 1 mM MgCl2, 1 mM EGTA, 0.5% methylcellulose, room temperature

percent of actin filaments associated with tropomyosin [%]	kon per unit filament length of the first observed Cdc8 binding (random-binding model fitted to the TIRFM data) [s⁻¹ nm⁻¹]	percent of F-actin coated at 2 μM Cdc8 and higher [%]	percent of actin filament sites coated at 1.25 μM Cdc8 [%]	percent of total actin filament coverage at 1 μM Cdc8 [%]	spreading rate of Cdc8 toward the barbed end (Cdc8 molecules sec^-1 μM^-1)	spreading rate of Cdc8 toward the pointed end (Cdc8 molecules sec^-1 μM^-1)	Substance
100	–	–	–	–	–	–	tropomyosin AlaSer-Cdc8 D142C, Cy5-labeled (natural protein)
100	4e-06	98	40	2	3.2	2.4	tropomyosin AlaSer-Cdc8 I76C, Cy5-labeled (natural protein)

— paper PMC5404920
